Measurements published in the supplement of paper PMC11865577.

Experiments:
Assay in all cases: pull-down binding Z-score (relative to library population); higher = stronger binding
[1] = tested on: TO-3-N3-2 (biotin conjugate); conditions: RNA library: Library-2
Outline: (§1)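 Binding is given as a Z-score against the library mean and standard deviation, calculated after removing the beads-only signal and averaging barcoded replicate probes without their highest and lowest values. Cy5- or Cy3-end-labelled RNA library (1 μg) was heat-folded in phosphate/NaCl/KCl buffer and incubated 60 min at 25 °C with streptavidin beads bearing 100 pmol of biotin-conjugated small molecule. After three washes, RNA eluted in hot SDS was hybridised to a DNA barcode microarray for 20 h at 55.5 °C.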

TO-N3 (biotin conjugate) = conditions: RNA library: Library-2
Outline: as §1

[2] = tested on: TO-3-N3 (biotin conjugate); conditions: RNA library: Library-2
Outline: as §1

[3] = tested on: TO-N3-2 (biotin conjugate); conditions: RNA library: Library-2
Outline: as §1

[4] = tested on: G-clamp-N3 (biotin conjugate); conditions: RNA library: Library-1 (pre-miRNA loops + repeats)
Outline: as §1

Sequence	pull-down binding Z-score [1]	pull-down binding Z-score (TO-N3 (biotin conjugate))	pull-down binding Z-score [2]	pull-down binding Z-score [3]	pull-down binding Z-score [4]
GCUGGGGGUAAAUGACUUGCACAUGAACACAAC [hsa-mir-708]	0.191	0.304	-0.0277	0.578	-0.951
GCUGGUCGCGGGUUGUGGGGUUUAGGUCACCGGC [hsa-mir-5091]	2.9	3.21	3.15	2.87	1.7
GCUGGUGACAUUGCUAAUUCAUUUCACACCAGC [hsa-mir-4293]	-0.177	-1.31	-0.991	-0.912	-0.642
GCUGUGUUGAAUGAUUGGUGAGUUUGUUUGCUCAUUGAUUGAAUCACUGC [hsa-mir-3678]	0.121	-0.79	-0.734	-0.307	0.133
GCUGUUGGUCGGGUUGUGACAUUGCCCGCUGUGGAGAUAACUGC [hsa-let-7i]	0.672	0.207	-0.307	1.01	-0.338
GCUUAUACGUGCCCUUGCU [hsa-mir-8075]	0.345	0.318	-0.186	0.504	-1.63
GCUUAUGGGGAUAUUGUGGUUGAUCUGUUCUAUCCAGAUGAC [hsa-mir-1261]	0.0944	0.676	0.283	0.626	0.854
GCUUAUGUCAUGACCUUGGGCUACUCAGGCUGUCUGCACAAUGAGC [hsa-mir-575]	-0.342	-0.0339	-0.544	1.66	-0.804
GCUUAUUGAUGUAGCCAACAAGC [hsa-mir-3148]	-0.225	-0.643	-0.527	-0.384	-0.529
GCUUCCGCUCUGCAGAGGC [hsa-mir-6822]	-0.487	0.0168	0.134	-0.438	-0.531
GCUUCUCUUUCUCACCAGCAGC [hsa-mir-4467]	0.152	-0.461	-0.543	-0.0165	-1.87
GCUUCUGCGUUAUCUGGAAGG [hsa-mir-4706]	-0.131	-0.25	-0.466	0.26	-0.078
GCUUCUGCUGCAUGAUCUCCGAGUCCCUGGGGGUAGAGAUGAUGGGGCACUGGGAGGU [hsa-mir-1282]	0.312	0.59	0.113	0.851	0.676
GCUUGCUGUACAUAACUCAAUAGCCGGAAGC [hsa-mir-129-2]	-0.316	-0.0532	-0.0763	0.327	-0.369
GCUUGCUGUUCCUCUCAACAGUAGUCAGGAAGC [hsa-mir-129-1]	-0.186	-0.219	-0.169	-0.245	-0.381
GCUUGGAGCCUUGGUAGGGAAGCAAGCUGAGGAGAUAGGA [hsa-mir-7154]	0.627	1.57	1.22	1.92	1.23
GCUUUAUGUCCUGACCCAGCUAAAGC [hsa-mir-22]	-0.246	0.112	0.3	-0.0465	-0.155
GCUUUCUGUGGUCAGAAAGAAAAGCAAGU [hsa-mir-520f]	0.704	0.758	0.636	0.76	1.15
GCUUUUCACCUGUGAUCCCAGGAGAGGAAGC [hsa-mir-646]	-0.0622	-0.0302	-0.299	0.422	-0.741
GGAAACUGAGACUUUGUAACUAUGUCUCAGUCUCA [hsa-mir-452]	-0.296	-0.297	-0.179	-0.427	-0.74
GGAAAGGGGAUGCAGAGCCCUGCC [hsa-mir-4647]	0.526	1.44	1.28	1.52	1.97
GGAACACUAUAUUAAUCAGGUUUCC [hsa-mir-6509]	-0.256	-0.631	-0.609	-0.706	-0.0674
GGAAGAAGGCUGAGGGAGAUGCCUUCUUCC [hsa-mir-6512]	-0.106	-0.155	-0.455	1.02	0.436
GGAAGACACAUGAGCAGUGCCUCCACUUCACGCCUCUCCC [hsa-mir-6780b]	0.0363	0.543	0.265	0.746	-1.13
GGAAGGGAGCCCCAUUUACAGUGGUAACUUCCUUUCC [hsa-mir-5006]	0.679	1.3	1.35	0.181	-0.388
GGAAGGGCGCCUGUGCUUCGUCC [hsa-mir-572]	-0.215	0.52	0.31	0.767	0.21
GGAAUAGUGCUCCUGGUUGUUUC [hsa-mir-1180]	-0.353	-0.303	-0.548	0.243	0.894
GGAAUCCUACGUGAGGGACAAUCAUUCAGACCCACGUAGCAGUGUUCU [hsa-mir-1299]	0.392	0.632	0.353	0.496	0.0519
GGACAGGGAUUCUUUUCACUGUU [hsa-mir-599]	0.0302	0.141	-0.0902	0.0602	1.08
GGACAUCCUUCCAUAGUAAAUAAGCGGUGCC [hsa-mir-8064]	0.131	-0.0974	-0.38	0.218	-0.584
